Each block holds one substance with its values, some of them ahead of it.
What was measured:
Assay in all cases: cell-based or functional assay
[1] = target: human IL-10 receptor (hIL-10Rα, hIL-10Rβ) (human) (UniProt Q13651)
[2] = target: IL-23 receptor complex (IL-12Rβ1, IL-23R) (UniProt P42701)
[3] = target: T1, IFN-γ receptor (IFNGR1, IFNGR2) (UniProt P15260)
T1 sequence (looked up) 1: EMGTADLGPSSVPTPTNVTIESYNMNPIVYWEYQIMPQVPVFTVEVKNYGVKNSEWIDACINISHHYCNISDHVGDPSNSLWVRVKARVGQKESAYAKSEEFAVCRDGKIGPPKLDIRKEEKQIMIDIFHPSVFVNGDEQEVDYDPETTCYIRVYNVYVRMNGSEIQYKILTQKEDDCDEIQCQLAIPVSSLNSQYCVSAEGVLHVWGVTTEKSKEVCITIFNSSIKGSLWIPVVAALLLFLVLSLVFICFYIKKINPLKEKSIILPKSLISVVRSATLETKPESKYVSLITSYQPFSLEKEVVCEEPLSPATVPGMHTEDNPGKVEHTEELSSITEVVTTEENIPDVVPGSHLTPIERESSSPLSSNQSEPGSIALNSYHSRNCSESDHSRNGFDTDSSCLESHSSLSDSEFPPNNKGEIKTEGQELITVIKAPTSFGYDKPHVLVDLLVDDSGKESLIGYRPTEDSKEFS
T1 sequence (looked up) 2: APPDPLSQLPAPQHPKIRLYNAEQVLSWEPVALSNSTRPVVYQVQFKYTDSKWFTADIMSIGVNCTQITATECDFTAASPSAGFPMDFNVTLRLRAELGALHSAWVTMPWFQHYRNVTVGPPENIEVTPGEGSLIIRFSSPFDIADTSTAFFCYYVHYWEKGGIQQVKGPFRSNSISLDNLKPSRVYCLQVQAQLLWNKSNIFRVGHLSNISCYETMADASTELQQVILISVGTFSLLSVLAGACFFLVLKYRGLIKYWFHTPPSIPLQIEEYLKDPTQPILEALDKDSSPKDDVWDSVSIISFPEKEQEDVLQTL

[4] = target: human IL-12 receptor complex (IL-12Rβ1, IL-12Rβ2) (human) (UniProt P42701)
human IL-12 receptor complex (IL-12Rβ1, IL-12Rβ2) (human), sequence (Q99665 24-862, chain 2 of 2, other chains not shown): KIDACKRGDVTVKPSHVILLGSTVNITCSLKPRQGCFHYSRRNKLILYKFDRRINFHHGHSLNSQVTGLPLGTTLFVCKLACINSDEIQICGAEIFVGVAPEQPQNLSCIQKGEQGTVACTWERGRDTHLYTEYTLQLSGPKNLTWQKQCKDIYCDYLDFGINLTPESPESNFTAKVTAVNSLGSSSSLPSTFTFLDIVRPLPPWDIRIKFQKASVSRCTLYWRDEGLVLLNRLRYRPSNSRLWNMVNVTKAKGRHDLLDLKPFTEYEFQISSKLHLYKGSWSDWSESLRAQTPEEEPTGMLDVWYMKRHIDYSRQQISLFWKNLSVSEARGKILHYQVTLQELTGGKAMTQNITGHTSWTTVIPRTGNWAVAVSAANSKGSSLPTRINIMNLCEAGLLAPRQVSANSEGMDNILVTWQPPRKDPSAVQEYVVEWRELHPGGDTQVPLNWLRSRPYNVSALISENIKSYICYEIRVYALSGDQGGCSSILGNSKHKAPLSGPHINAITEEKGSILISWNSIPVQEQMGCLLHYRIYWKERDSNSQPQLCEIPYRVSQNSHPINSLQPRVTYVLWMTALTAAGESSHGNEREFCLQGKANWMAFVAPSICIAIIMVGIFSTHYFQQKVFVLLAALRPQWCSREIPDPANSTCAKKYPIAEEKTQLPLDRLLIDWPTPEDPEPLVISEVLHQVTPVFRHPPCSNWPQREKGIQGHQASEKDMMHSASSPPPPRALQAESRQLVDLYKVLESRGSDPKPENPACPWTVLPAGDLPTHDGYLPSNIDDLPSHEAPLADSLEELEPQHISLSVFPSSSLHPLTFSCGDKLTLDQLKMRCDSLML

recombinant human IL-23 (free state), sequence (P29460 23-328 limits assumed): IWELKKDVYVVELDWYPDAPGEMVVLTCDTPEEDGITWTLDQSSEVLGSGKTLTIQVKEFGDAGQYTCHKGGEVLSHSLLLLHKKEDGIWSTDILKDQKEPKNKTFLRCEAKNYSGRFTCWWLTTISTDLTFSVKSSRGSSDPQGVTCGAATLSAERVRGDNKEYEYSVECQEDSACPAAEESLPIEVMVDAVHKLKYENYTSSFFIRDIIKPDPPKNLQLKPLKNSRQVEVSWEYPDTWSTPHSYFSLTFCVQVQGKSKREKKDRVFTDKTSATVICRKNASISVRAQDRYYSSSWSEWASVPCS
recombinant human IL-23 (free state), sequence (Q9NPF7 20-189 limits assumed): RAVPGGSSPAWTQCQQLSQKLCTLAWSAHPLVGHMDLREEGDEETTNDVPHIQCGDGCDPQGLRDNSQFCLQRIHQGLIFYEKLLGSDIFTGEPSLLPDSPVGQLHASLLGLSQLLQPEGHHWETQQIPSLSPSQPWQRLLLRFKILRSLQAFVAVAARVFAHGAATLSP
recombinant human IL-12 (free state), sequence (P29460 23-328 limits assumed): as the sequence (P29460 23-328 limits assumed) above
recombinant human IL-12 (free state), sequence (P29459 23-219 limits assumed): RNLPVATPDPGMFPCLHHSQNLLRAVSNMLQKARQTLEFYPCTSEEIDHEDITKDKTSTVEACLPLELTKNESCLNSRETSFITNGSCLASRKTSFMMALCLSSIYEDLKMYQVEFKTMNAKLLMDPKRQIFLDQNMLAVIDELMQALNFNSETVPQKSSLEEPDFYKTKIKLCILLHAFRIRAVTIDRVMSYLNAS
recombinant human IFN-γ (free state), sequence (P01579 24-166 limits assumed): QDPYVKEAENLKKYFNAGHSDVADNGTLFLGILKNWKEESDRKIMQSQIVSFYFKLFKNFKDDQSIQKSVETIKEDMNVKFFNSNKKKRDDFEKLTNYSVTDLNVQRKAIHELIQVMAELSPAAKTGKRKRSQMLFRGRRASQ
IL-23 receptor complex (IL-12Rβ1, IL-23R), sequence (Q5VWK5 24-629 limits assumed, chain 2 of 2, other chains not shown): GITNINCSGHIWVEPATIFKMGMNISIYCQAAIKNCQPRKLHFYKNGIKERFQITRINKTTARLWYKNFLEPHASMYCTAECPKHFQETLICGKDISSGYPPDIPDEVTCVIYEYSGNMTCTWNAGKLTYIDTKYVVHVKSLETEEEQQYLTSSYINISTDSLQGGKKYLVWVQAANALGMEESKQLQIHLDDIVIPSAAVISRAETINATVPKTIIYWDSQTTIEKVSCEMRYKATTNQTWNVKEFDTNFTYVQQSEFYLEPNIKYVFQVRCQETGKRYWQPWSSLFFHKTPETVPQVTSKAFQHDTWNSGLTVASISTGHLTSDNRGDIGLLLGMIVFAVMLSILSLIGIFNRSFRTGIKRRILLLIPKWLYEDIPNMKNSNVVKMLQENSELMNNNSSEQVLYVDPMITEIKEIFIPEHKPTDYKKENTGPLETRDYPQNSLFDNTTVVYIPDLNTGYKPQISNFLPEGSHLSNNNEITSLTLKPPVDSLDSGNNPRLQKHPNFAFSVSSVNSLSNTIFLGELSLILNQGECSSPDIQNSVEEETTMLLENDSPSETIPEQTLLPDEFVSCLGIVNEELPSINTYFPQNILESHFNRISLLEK
human IL-10 receptor (hIL-10Rα, hIL-10Rβ) (human), sequence (Q13651 22-578, chain 1 of 2): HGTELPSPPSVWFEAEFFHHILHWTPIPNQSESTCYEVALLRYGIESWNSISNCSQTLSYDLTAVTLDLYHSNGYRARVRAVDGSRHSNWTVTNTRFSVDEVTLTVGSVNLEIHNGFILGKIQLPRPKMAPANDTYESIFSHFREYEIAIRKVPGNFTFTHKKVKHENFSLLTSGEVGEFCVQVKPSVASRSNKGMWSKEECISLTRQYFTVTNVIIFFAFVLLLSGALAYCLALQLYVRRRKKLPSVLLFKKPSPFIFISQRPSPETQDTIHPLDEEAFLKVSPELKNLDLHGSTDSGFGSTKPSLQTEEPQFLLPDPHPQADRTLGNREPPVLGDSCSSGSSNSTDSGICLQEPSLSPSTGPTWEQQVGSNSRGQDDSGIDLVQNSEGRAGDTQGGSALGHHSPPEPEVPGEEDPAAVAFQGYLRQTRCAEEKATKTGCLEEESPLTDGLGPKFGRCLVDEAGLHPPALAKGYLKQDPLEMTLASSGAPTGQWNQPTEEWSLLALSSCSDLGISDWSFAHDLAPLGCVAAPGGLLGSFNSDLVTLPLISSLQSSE
human IL-10 receptor (hIL-10Rα, hIL-10Rβ) (human), sequence (Q08334 20-325, chain 2 of 2, further chain): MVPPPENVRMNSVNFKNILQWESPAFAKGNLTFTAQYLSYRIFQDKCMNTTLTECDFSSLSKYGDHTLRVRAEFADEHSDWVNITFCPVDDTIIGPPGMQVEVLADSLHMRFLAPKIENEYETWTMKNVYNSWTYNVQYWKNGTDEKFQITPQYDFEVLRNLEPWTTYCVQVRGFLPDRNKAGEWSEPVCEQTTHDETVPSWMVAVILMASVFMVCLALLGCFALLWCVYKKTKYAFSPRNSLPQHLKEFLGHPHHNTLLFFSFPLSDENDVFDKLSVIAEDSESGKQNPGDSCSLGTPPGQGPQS

IL-10 biological activity, HEK-IL-10 cells [1]: 100%
IL-10 biological activity, HEK-PD-1-IL-10 cells [1]: 100%
Substance: recombinant human IL-10 (free state) (from UniProt P22301 19-178) (ligand)

IL-23 biological activity (IFN-γ release), CD4+ T cells [2]: 100%
IL-23 biological activity (IFN-γ release), CD8+ T cells [2]: 100%
IL-23 biological activity, HEK-IL-23 cells [2]: 100%
IL-23 biological activity, HEK-PD-1-IL-23 cells [2]: 100%
Substance: recombinant human IL-23 (free state) (from UniProt P29460 23-328; Q9NPF7 20-189) (ligand)

IFN-γ biological activity, HEK-IFN-γ cells [3]: 100%
IFN-γ biological activity, HEK-PD-1-IFN-γ cells [3]: 100%
PD-L1 expression (anti-PD-L1 APC, FACS), HEK-CD4-IFN-γ cells [3]: 67 MFI
PD-L1 expression (anti-PD-L1 APC, FACS), HEK-IFN-γ cells [3]: 75 MFI
Substance: recombinant human IFN-γ (free state) (from UniProt P01579 24-166) (ligand)

IL-12 biological activity (IFN-γ release), CD4+ T cells [4]: 100%
IL-12 biological activity (IFN-γ release), CD8+ T cells [4]: 100%
IL-12 biological activity, HEK-IL-12 [4]: 100%
IL-12 biological activity, HEK-IL-12-PD-1 [4]: 100%
IL-12 biological activity, HEK-IL-12-PD-1 (high) [4]: 100%
IL-12 biological activity, HEK-IL-12-PD-1 (low) [4]: 100%
IL-12 biological activity, HEK-IL-12 cells [4]: 100%
IL-12 biological activity, HEK-PD-1-IL-12 [4]: 100%
IL-12 biological activity, HEK-PD-1-IL-12 cells [4]: 100%
PBMC (IFN-γ ng/ml) [4]: 2300 ng/mL
Substance: recombinant human IL-12 (free state) (from UniProt P29460 23-328; P29459 23-219) (ligand)

Source: patent publication US20240190962A1
